The supplement of paper PMC12764529
± gives the half width of the 95% confidence interval.

Test: folding stability dG unfold from chymotrypsin proteolysis; higher = more stable
How it was run: (§1)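 K50 was inferred by Bayesian fitting of sequencing counts obtained after protease digestion of designed mini-proteins. Unfolding free energy was derived by comparison with a sequence-predicted unfolded-state K50 and a shared folded-state K50, for each protease or both combined. The mini-proteins were under 80 residues, had no cysteine, were carried in a PA-tagged cDNA display construct, and were kept only if AlphaFold2 dimer inter-PAE exceeded 15.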

Compared with “ENYVAIEITMEMPNPDGMEMKFDLKIIKLDPDDGKFAIEMSMEMENPNGKPYRHPMWFVIPADELKEFLEAS [r1_371_TrROS]”, “SAGMTIIKIEFPDGSKATVDPTNPSTMTITDPNGNTTVLNLTGVEEAKKQLIETLKKETGLPVKKVEVESAG [r5_119_JUSTAS]” is lower in “folding stability dG unfold” value: 4.12 ± 0.12 kcal/mol for the first, 1.38 ± 0.049 kcal/mol for the second.

First: SAGGSAKTKVIEIEIDLSPEEIEELAKKLKEEGKVEEVKVEYDEKTGKVKVTVVVRDKNGEWKKLSSAGGSA [r15_177_TrROS_Hall]
Second: SAGGMKIYYISKGKKYYVKVILPNNEIIEIETESLEEAIKKAKEELIKKYPNIPPENFKIDYIIPLPESAGG [r13_887_TrMRF]
The “folding stability dG unfold” value of the first is lower: -0.0755 ± 0.48 kcal/mol for the first, 4.34 ± 0.078 kcal/mol for the second.

Compared with “SAGGSAGGSAGGSMVTLTVEKTFTSLLKTPESELIPVTSTVTEEVTIPESEATEELIKELSAGGSAGGSAGG [r7_777_JUSTAS]”, “SAGGSPKPVPVTITSVTSTSVEVYLPSTGATFTFNLNEEKTLTLPDGSKIYFTFNSDGSVTATVIEYGSAGG [r13_352_TrMRF]” is higher in “folding stability dG unfold” value: -0.0189 ± 0.23 kcal/mol for the first, 4.88 ± 0.051 kcal/mol for the second.

Compared with “SAGGSSESKTVTAPDGRVLEFTKSLDPTSSNSRYTLTVYAPESGEPLREAEFSSEEEAEKYIAEGLGSAGGS [r8_450_JUSTAS]”, “SAGGSAMYYRFEIPRPDGVIEEIWIKMTPEEAKALVEALEADPNVASVKVEAITEEEARKLGIFENSAGGSA [r15_39_JUSTAS]” is higher in “folding stability dG unfold” value: 0.487 ± 0.072 kcal/mol for the first, 4.46 ± 0.12 kcal/mol for the second.

First: SAGGSAGGSAAPVPPDRTLTVYRDPNTDKYTIRTPDGSVTVSPITPEELRAAGAPVVYLGPESAGGSAGGSA [r18_125_JUSTAS]
Second: SAGGSKGKAPVKVRFLFLEDGKVVAEAEVEFEVEVPIPPVPPVFVPEEARKALENGDIEKALKLLGSAGGSA [r2_196_TrMRF]
The “folding stability dG unfold” value of the first is lower: -0.0867 ± 0.12 kcal/mol for the first, 1.58 ± 0.035 kcal/mol for the second.

Going from “SAGGSAGGSAGGHMVMITITIPIKKGAEIKFGDWDIKVPPGEQIQITIMIPVPPPDDDKSAGGSAGGSAGGS [r10_949_TrROS]” to “SAGMTITVKPGEKVKVTIKVEVFDENGKLIKKEEKEVEITVKEGDEITIKIKLDKPVKVKIEIKIEKKSAGG [r19_295_TrROS_Hall]”, the “folding stability dG unfold” value falls from 2.8 ± 0.21 kcal/mol to 2.01 ± 0.15 kcal/mol.

Going from “SAGDGDKMRGEHEREDPNGKKREVTHEMKVQPPPVPKPKIELPADDIDEIDPDNGTLRNPGNGKPFPIGSAG [r5_807_TrROS]” to “SAGGSAGGSAGPKIPKNYKIVATYTVPPTNKKKLILYDPKTNKPLIFDTVSGKIYPFGKKSAGGSAGGSAGG [r11_268_TrMRF]”, the “folding stability dG unfold” value rises from -0.465 ± 0.17 kcal/mol to 2 ± 0.11 kcal/mol.

Compared with “SAAPVRVEVEYDPERGVLRVRLYIPATSPEEARELVERFFAALGAEARITENPETGTFVVEVDIRLPPASAG [r14_424_TrMRF]”, “SAGGSAGGSMVITVDPSLSPEEAVERAKEEVKKEVPESEPVEVTVVIKDPETGKTTEIPVKLDSAGGSAGGS [r12_1051_JUSTAS]” is lower in “folding stability dG unfold” value: 5.15 ± 0.056 kcal/mol for the first, -1.17 ± 0.23 kcal/mol for the second.

Test: folding stability dG unfold (combined trypsin and chymotrypsin); higher = more stable
How it was run: as §1

Going from “SAMVEVSTLPDGTTRVTITGKDPAAFEKELAELIEKIKKEGINATITKTREEPIPEEPELYRAELEIIVSAG [r14_119_JUSTAS]” to “SKPNLEVKEVEIKMTAEEIKKLLKPNVTKIEKVNGKYYVTVKVNGVLVKIEIKYDKETNEVTVKIYVIKPSA [r9_604_TrROS_Hall]”, the “folding stability dG unfold” value rises from 1.54 ± 0.25 kcal/mol to 2.88 ± 0.11 kcal/mol.

Going from “SAVSTAQLPDDTTLTTITLPGDPSVTLTITTRKLPDGTPYLDATITLPDGTPVTVTFPAGTEAAVIAALASA [r9_310_JUSTAS]” to “SAGPPVEIPITIKIRYWKPDPDGPKPVEERTIPIPVRMPPDQLDDPAFNNFIKEALDELPPGIRMIEITSAG [r5_849_TrROS]”, the “folding stability dG unfold” value falls from 2.44 ± 0.086 kcal/mol to 1.07 ± 0.068 kcal/mol.

First: SAGGSAGGSGYLSQERPVTIKLPNGEVVEVDGVVRESPESDVVTVEIPETGQTIEVPKANVVESAGGSAGGS [r12_772_JUSTAS]
Second: SAGGKPGEKPRIRIQVKVRYPGNGRKQSITIEIVPDAIEQGLSASELADEIARKMGMPVKIEEIEILSAGGS [r16_554_TrROS]
The “folding stability dG unfold” value of the first is lower: 0.447 ± 0.1 kcal/mol for the first, 1.79 ± 0.04 kcal/mol for the second.

Going from “SPVSLSFTTAPSGLPTVTSASQPADGSLLLTLTEPATGATTTLTLPPGLPPGVERTVTLPGPDGATTLTVGS [r1_43_JUSTAS]” to “SAGGSAGGSAGGSKKKIKIYIENENGEKKTIEIEVEGDIDEIAKELAKKYNVKIVKIEPSAGGSAGGSAGGS [r4_412_TrROS_Hall]”, the “folding stability dG unfold” value rises from 0.364 ± 0.073 kcal/mol to 3.05 ± 0.05 kcal/mol.

Compared with “PDNEPPQWYRVWIPIDPEDGKIEVKPGGSTMTIDLPDGRPIEFYVPQGMSPSDIKNWAKGIAKELAEELKNS [r1_25_TrROS]”, “SAGGSAGGSAEVEIEVDKETKELYIKDSNGKVKKIKVKVVKVEVKKPVVTLPKEELSEEELKSAGGSAGGSA [r18_59_TrROS_Hall]” is lower in “folding stability dG unfold” value: 1.52 ± 0.2 kcal/mol for the first, 0.258 ± 0.33 kcal/mol for the second.

Going from “SAGGKPPGLSEIPLPDNKTEKVPVNSDIVLKRPDGTELKYKLPPEPVTTEKNKYTIKLPNGEITIPINSAGG [r13_643_JUSTAS]” to “SAGKEKEIAEAIEEFLKEKGYDVKVKLIKVNPNNPNLSKVVLEVEVLGYLPDKKPLGKKRFKLVILGGSAGG [r19_418_TrMRF]”, the “folding stability dG unfold” value rises from -0.0992 ± 0.32 kcal/mol to 2.52 ± 0.17 kcal/mol.

“SAGGDLIERVAKELMEKFPMKPGEPRPITIEIPYPDGYRIKVDIPVRVNPDNGEFRFKFDIKEIEPWSAGGS [r16_634_TrROS]” and “SAGPKMKPIPFEFRNPDNGHKVKISVYYNPNGKRKIMITNPGDGRIYTFKINPGGIEIEKEIPLDDIKFSAG [r5_619_TrROS]” are within error of each other in “folding stability dG unfold” value: 1.25 ± 0.13 kcal/mol for the first, 0.83 ± 0.36 kcal/mol for the second.

First: SAGGSITKTLGTEEKGDKTITYSVTTSPEGKITFTTTTKTPSGSGTSTTTTTTTTPLAGLPLPPLGGSAGGS [r8_458_JUSTAS]
Second: ENYVAIEITMEMPNPDGMEMKFDLKIIKLDPDDGKFAIEMSMEMENPNGKPYRHPMWFVIPADELKEFLEAS [r1_371_TrROS]
The “folding stability dG unfold” value of the first is lower: 0.717 ± 0.19 kcal/mol for the first, 3.54 ± 0.28 kcal/mol for the second.

Going from “SAGMTIIKIEFPDGSKATVDPTNPSTMTITDPNGNTTVLNLTGVEEAKKQLIETLKKETGLPVKKVEVESAG [r5_119_JUSTAS]” to “SAGGSAKTKVIEIEIDLSPEEIEELAKKLKEEGKVEEVKVEYDEKTGKVKVTVVVRDKNGEWKKLSSAGGSA [r15_177_TrROS_Hall]”, the “folding stability dG unfold” value falls from 1.14 ± 0.088 kcal/mol to 0.556 ± 0.15 kcal/mol.

Going from “SAGGMKIYYISKGKKYYVKVILPNNEIIEIETESLEEAIKKAKEELIKKYPNIPPENFKIDYIIPLPESAGG [r13_887_TrMRF]” to “SAGGSAGGSAGGSMVTLTVEKTFTSLLKTPESELIPVTSTVTEEVTIPESEATEELIKELSAGGSAGGSAGG [r7_777_JUSTAS]”, the “folding stability dG unfold” value falls from 4.18 ± 0.2 kcal/mol to 0.399 ± 0.2 kcal/mol.

First: SAGGSPKPVPVTITSVTSTSVEVYLPSTGATFTFNLNEEKTLTLPDGSKIYFTFNSDGSVTATVIEYGSAGG [r13_352_TrMRF]
Second: SAGGSSESKTVTAPDGRVLEFTKSLDPTSSNSRYTLTVYAPESGEPLREAEFSSEEEAEKYIAEGLGSAGGS [r8_450_JUSTAS]
The “folding stability dG unfold” value of the first is higher: 4.83 ± 0.12 kcal/mol for the first, 0.331 ± 0.068 kcal/mol for the second.

First: SAGGSAMYYRFEIPRPDGVIEEIWIKMTPEEAKALVEALEADPNVASVKVEAITEEEARKLGIFENSAGGSA [r15_39_JUSTAS]
Second: SAGGSAGGSAAPVPPDRTLTVYRDPNTDKYTIRTPDGSVTVSPITPEELRAAGAPVVYLGPESAGGSAGGSA [r18_125_JUSTAS]
The “folding stability dG unfold” value of the first is higher: 4.34 ± 0.18 kcal/mol for the first, -0.297 ± 0.073 kcal/mol for the second.

Compared with “SAGGSKGKAPVKVRFLFLEDGKVVAEAEVEFEVEVPIPPVPPVFVPEEARKALENGDIEKALKLLGSAGGSA [r2_196_TrMRF]”, “SAGGSAGGSAGGHMVMITITIPIKKGAEIKFGDWDIKVPPGEQIQITIMIPVPPPDDDKSAGGSAGGSAGGS [r10_949_TrROS]” is higher in “folding stability dG unfold” value: 1.36 ± 0.13 kcal/mol for the first, 2.79 ± 0.3 kcal/mol for the second.

Compared with “SAGMTITVKPGEKVKVTIKVEVFDENGKLIKKEEKEVEITVKEGDEITIKIKLDKPVKVKIEIKIEKKSAGG [r19_295_TrROS_Hall]”, “SAGDGDKMRGEHEREDPNGKKREVTHEMKVQPPPVPKPKIELPADDIDEIDPDNGTLRNPGNGKPFPIGSAG [r5_807_TrROS]” is lower in “folding stability dG unfold” value: 2.29 ± 0.25 kcal/mol for the first, -0.31 ± 0.41 kcal/mol for the second.

First: SAGGSAGGSAGPKIPKNYKIVATYTVPPTNKKKLILYDPKTNKPLIFDTVSGKIYPFGKKSAGGSAGGSAGG [r11_268_TrMRF]
Second: SAAPVRVEVEYDPERGVLRVRLYIPATSPEEARELVERFFAALGAEARITENPETGTFVVEVDIRLPPASAG [r14_424_TrMRF]
The “folding stability dG unfold” value of the first is lower: 1.84 ± 0.097 kcal/mol for the first, 4.92 ± 0.074 kcal/mol for the second.

With “SAGGSAGGSMVITVDPSLSPEEAVERAKEEVKKEVPESEPVEVTVVIKDPETGKTTEIPVKLDSAGGSAGGS [r12_1051_JUSTAS]” the “folding stability dG unfold” value was 0.187 ± 0.26 kcal/mol.
